Laboratory results reported in patent US20250136702A1 (NONA BIOSCIENCES SUZHOU, published 2025).
Where a chain is given by its changes, count along the chain named.

What was measured:
[1] = biological target: T1, mouse LIFR-ECD protein (mouse, UniProt P42703 44-828); assay: ELISA on plate-coated mouse LIFR-ECD (1 ug/mL), anti-human IgG Fc-HRP, OD450nm
T1 construct: extracellular domain
T1 sequence (looked up): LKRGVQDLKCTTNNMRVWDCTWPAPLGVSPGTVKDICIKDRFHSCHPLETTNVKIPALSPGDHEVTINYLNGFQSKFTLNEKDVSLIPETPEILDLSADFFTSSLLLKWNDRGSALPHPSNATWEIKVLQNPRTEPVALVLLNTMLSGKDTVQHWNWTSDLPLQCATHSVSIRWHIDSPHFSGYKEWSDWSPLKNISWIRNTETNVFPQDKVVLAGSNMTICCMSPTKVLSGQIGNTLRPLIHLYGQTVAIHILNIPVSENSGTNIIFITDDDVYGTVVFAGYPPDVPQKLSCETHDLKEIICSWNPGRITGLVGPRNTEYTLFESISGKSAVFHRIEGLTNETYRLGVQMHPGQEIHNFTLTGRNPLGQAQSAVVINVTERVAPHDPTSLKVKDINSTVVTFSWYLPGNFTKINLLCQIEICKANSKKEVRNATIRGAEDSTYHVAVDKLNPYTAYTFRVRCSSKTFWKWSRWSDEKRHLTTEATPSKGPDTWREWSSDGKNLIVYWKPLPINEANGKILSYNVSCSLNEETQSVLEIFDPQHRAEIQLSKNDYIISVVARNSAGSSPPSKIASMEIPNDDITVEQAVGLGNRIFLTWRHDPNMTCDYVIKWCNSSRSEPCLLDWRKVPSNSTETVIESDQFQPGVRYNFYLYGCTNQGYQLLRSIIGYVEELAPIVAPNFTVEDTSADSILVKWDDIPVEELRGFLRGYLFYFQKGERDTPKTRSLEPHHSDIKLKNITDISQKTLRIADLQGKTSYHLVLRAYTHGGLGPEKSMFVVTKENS
Protocol: The binding ability of the 15 antibodies prepared in examples 1-4 of the present invention to the LIFR-ECD protein was detected based on the ELISA assay method. The binding affinity of different antibodies was determined by comparing their dose response binding curves to LIFR-ECD protein. The specific experimental process is as follows: First, human LIFR-ECD, monkey LIFR-ECD and mouse LIFR-ECD proteins are diluted to a concentration of 1 μg/mL, added to a 96-well plate (100 μL per well) and placed at 4° C. overnight. The 96-well plates were washed three times with PBST solution and then placed at 37° C. for 1 h with the addition of 2% BSA in PBS solution. Antibody seris dilution is prepared and (100 nM, 10-fold-dilution), added to a 96-well plate and incubate at 37° C. for 1 h. After washing three times with PBST solution, add anti-human IgG Fc-HRP secondary antibody (for 5000× dilution) and incubate at 37° C. for 30-60 min. After washing three times with PBST solution, add TMB color development solution for 5-15 minutes, and then add termination solution to ternimate the color development.

[2] = biological target: T2, human LIFR/gp130 heterodimer expressed on the surface of 293T cells (human, UniProt P42702 45-1097; P40189 23-918); assay: flow cytometry on HEK293T-huLIFR/gp130 cells, median fluorescence, span of the fitted curve
T2 construct: whole, on cells; also called HEK293T-huLIFR/gp130; huLIFR/gp130

[3] = biological target: T3, human LIFR expressed on the surface of 293T cells (human, UniProt P42702 45-1097); assay: flow cytometry on HEK293T-huLIFR cells, median fluorescence, span of the fitted curve
T3 construct: whole, on cells; also called HEK293T-huLIFR; huLIFR
T3 sequence (looked up): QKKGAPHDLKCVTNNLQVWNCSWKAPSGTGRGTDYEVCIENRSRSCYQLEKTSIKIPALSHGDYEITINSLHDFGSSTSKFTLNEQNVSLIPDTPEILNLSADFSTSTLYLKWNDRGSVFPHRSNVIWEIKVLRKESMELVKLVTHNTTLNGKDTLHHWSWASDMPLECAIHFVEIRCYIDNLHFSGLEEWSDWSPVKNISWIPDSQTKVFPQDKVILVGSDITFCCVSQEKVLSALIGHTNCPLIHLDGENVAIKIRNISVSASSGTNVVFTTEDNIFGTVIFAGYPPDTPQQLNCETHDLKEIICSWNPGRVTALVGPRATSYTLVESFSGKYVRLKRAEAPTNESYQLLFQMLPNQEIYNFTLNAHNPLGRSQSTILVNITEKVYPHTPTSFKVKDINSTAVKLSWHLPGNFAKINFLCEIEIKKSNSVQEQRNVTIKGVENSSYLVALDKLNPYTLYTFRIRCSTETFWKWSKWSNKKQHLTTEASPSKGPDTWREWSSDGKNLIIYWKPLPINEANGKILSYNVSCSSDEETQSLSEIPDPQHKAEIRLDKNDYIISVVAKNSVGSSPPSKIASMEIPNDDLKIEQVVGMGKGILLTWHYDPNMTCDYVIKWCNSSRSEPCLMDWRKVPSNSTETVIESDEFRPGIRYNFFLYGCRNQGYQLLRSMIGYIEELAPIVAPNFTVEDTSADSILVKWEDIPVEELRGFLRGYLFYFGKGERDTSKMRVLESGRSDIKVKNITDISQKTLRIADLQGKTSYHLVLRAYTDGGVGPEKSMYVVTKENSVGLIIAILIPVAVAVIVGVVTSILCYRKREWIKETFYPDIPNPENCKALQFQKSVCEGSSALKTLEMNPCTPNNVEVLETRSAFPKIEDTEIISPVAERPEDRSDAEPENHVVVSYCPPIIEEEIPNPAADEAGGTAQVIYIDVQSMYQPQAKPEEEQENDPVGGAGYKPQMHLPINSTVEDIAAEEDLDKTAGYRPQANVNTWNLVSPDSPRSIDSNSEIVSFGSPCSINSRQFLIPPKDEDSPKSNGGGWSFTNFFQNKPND

T2 sequence (P40189 23-918, one chain of several): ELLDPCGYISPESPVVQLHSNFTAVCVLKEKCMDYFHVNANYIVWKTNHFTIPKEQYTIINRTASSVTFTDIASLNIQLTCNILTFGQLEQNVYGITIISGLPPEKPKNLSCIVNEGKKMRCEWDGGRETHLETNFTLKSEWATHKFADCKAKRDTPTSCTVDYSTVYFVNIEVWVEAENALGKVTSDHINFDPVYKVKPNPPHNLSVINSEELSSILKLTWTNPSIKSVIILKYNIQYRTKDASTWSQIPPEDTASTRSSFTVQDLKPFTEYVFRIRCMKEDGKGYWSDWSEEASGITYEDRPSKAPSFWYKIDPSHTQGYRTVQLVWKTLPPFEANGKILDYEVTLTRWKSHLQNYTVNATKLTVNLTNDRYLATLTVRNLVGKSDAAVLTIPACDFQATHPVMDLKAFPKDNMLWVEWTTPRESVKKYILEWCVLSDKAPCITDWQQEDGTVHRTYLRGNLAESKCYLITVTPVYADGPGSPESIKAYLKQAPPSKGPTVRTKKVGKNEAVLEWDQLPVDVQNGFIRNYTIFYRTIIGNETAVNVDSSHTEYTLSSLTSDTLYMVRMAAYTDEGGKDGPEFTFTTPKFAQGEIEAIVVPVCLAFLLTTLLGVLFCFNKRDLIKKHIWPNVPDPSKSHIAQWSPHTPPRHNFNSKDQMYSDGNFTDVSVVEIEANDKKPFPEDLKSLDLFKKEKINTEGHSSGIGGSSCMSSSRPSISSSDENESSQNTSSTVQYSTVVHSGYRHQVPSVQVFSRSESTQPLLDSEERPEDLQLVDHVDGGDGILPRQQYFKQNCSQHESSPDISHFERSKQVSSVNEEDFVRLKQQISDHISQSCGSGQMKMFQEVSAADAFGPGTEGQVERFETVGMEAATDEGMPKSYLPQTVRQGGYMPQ

B1: PR301177 (antibody, human IgG1, kappa, V domains shown)
VH: QVQLVESGGGVVQPGRSLRLSCVASGFTFSSYGMNWVRQAPGKGLDWVTVIWFDGSNKYYADSVKGRFTISRDNSKNTLYLQMNSLRAEDTAMYYCARGERTLDLWGQGTLVTVSS
VL: DIQMTQSPSTLSASVGDRVTITCRASQSISSWLAWYQQKPGKAPKLLIYKASSLESGVPSRFSGSGSGTEFSFTISSLQPDDFATYYCQQYKSFSPGGLTFGGGTKVEIKR
[1]
  binding result: no binding (tested: 100 nM)

B2: PR301127 (antibody, human IgG1, kappa, V domains shown)
VH: EVQLLQSGGGLVQPGGSLRLSCAASGFTFSNYAMTWVRQAPGKGLEWVSTISGSGAFTYYADAVKGRFTISRVNSKNSLDLQMNSLRAEDTAVYYCAKGGILTGFDNWGQGTLVTVSS
VL: B1 VL
[2]
  Span: 55.6

B3: PR301176 (antibody, IgG1, V domains shown)
VH: QVQLVESGGGVVQPGRSLRLSCAASGFTFSSYGMDWVRQAPGKGLEWVAVIWYDGSNKFYADSVRGRFTISRDNSQNTLYLQMNSLRAEDTAVYYCARELWFGELLSPFDFWGQGTLVTVSS
VL: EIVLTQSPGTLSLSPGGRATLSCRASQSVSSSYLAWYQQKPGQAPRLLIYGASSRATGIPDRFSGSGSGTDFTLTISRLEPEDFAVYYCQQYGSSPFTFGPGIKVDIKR
[1]
  binding result: no binding (tested: 100 nM)

B4: PR301168 (antibody, IgG1, V domains shown)
VH: B3 VH with F109L
VL: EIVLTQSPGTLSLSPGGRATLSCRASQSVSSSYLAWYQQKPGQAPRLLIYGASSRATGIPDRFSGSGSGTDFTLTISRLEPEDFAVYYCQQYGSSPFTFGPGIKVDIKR
notes: also called PR3001168
[2]
  Span: 6950
[3]
  Span: 19400
[1]
  binding result: no binding (tested: 100 nM)

B5: PR301152 (antibody, IgG1, V domains shown)
VH: B3 VH with F59Y, R65K, Q76K
VL: KIVLTQSPGTLSLSPGGRATLSCRASQSISSSYLAWYQQKPGQAPRLLIYAASNRATGIPDRFSGSGSGTDFTLTISRLEPEDFAVYYCQQYGSSPFTFGPGIKVDIKR
[2]
  Span: 7210
[3]
  Span: 20100
[1]
  binding result: no binding (tested: 100 nM)

B6: PR301153 (antibody, IgG1, V domains shown)
VH: QGQLVESGGGVVQPGRSLRLSCAASGFTFSSYGMHWVRQPPGKGLEWVAVIWFDGSNKYYADSVKGRFTISRDNSKNTVYLQMDSLRDEDTAVYYCARGQLVGDYWGQGTLVTVSS
VL: not shown
[1]
  binding result: no binding (tested: 100 nM)

B7: PR301215 (antibody, human IgG1, kappa, V domains shown)
VH: B6 VH with G2V, P40A, N57I, V79L, D84N, D88A, V93I, G103Q, Y105F, Q108R
VL: DIQMTQSPSTLSASVGDRVTITCRASQSISSWLAWYQQKPGKAPNLLMYKASNLESGVPSRFSGSGSGTEFTLTITSLQPDDFASYYCQQYKSNPLTFGGGTKVEIKR
[1]
  binding result: no binding (tested: 100 nM)

B8: PR301195 (antibody, human IgG1, kappa, V domains shown)
VH: QVQLVESGGGVVQPGRSLRLSCAASGFTFSSYGMNWVRQAPGKGLEWVAVIWFDGSIKYYADSVKGRFTISRDNSKNTLYLQMNSLRAEDTAIYYCARGQLVQDFWGRGTLVTVSS
VL: B7 VL
[1]
  binding result: no binding (tested: 100 nM)

B9: PR301196 (antibody, human IgG1, kappa, V domains shown)
VH: B8 VH
VL: B7 VL with S56N, P59S, S85T
[1]
  binding result: no binding (tested: 100 nM)

B10: PR301218 (antibody, human IgG1, kappa, V domains shown)
VH: B8 VH with N35H, I57V
VL: B7 VL
[1]
  binding result: no binding (tested: 100 nM)

B11: PR301211 (antibody, human IgG1, kappa, V domains shown)
VH: B8 VH with N35H, I57L, T69A, Y94F, F105L
VL: B7 VL
[2]
  Span: 5800
[3]
  Span: 15900

B12: PR300516 (antibody, human IgG1, kappa, V domains shown)
VH: QVQLVESGGGVVQPGRSLRLSCAASGFTFSSYGMHWVRQAPGKGLEWVAVIWYDGNNKYYADSVKGRFTISRDNSKNTLYLQMNSLRAEDTAVYYCARDGESSMVRGLLNWFDPWGQGTLVTVSS
VL: not shown
[2]
  Span: 6880
[3]
  Span: 19800
[1]
  binding result: no binding (tested: 100 nM)
